Tests used:
[1] = molecular target: chondroitin sulfate proteoglycan 4 (CSPG4) (human) (UniProt Q6UVK1); assay: flow cytometry (FACS), CD44+/CD24-/lo putative CSC subpopulation of SUM-149 cells
[2] = molecular target: chondroitin sulfate proteoglycan 4 (CSPG4) (human) (UniProt Q6UVK1); assay: flow cytometry (FACS), whole cell population of T-47D cells
[3] = molecular target: chondroitin sulfate proteoglycan 4 (CSPG4) (human) (UniProt Q6UVK1); assay: flow cytometry (FACS), CD44+/CD24-/lo putative CSC subpopulation of MDA-MB-231 cells
[4] = molecular target: chondroitin sulfate proteoglycan 4 (CSPG4) (human) (UniProt Q6UVK1); assay: flow cytometry (FACS), whole cell population of MDA-MB-435 cells
[5] = molecular target: chondroitin sulfate proteoglycan 4 (CSPG4) (human) (UniProt Q6UVK1); assay: flow cytometry (FACS), CD44+/CD24-/lo putative CSC subpopulation of HS578T cells
[6] = molecular target: chondroitin sulfate proteoglycan 4 (CSPG4) (human) (UniProt Q6UVK1); assay: flow cytometry (FACS), whole cell population of SK-BR-3 cells
[7] = molecular target: chondroitin sulfate proteoglycan 4 (CSPG4) (human) (UniProt Q6UVK1); assay: flow cytometry (FACS), whole cell population of SUM-149 cells
[8] = molecular target: chondroitin sulfate proteoglycan 4 (CSPG4) (human) (UniProt Q6UVK1); assay: flow cytometry (FACS), whole cell population of MDA-MB-231 cells
[9] = molecular target: chondroitin sulfate proteoglycan 4 (CSPG4) (human) (UniProt Q6UVK1); assay: flow cytometry (FACS), whole cell population of HS578T cells
[10] = molecular target: chondroitin sulfate proteoglycan 4 (CSPG4) (human) (UniProt Q6UVK1); assay: cell-based or functional assay
[11] = molecular target: chondroitin sulfate proteoglycan 4 (CSPG4) (human) (UniProt Q6UVK1); assay: flow cytometry (FACS), CD44+/CD24-/lo putative CSC subpopulation of MDA-MB-435 cells
[12] = molecular target: chondroitin sulfate proteoglycan 4 (CSPG4) (human) (UniProt Q6UVK1); assay: flow cytometry (FACS), CD44+/CD24-/lo putative CSC subpopulation of MCF-7 cells
[13] = molecular target: chondroitin sulfate proteoglycan 4 (CSPG4) (human) (UniProt Q6UVK1); assay: flow cytometry (FACS), whole cell population of MCF-7 cells
[14] = molecular target: chondroitin sulfate proteoglycan 4 (CSPG4) (human) (UniProt Q6UVK1); assay: flow cytometry (FACS), whole cell population of SK-BR-3 cells; control antibody
[15] = molecular target: chondroitin sulfate proteoglycan 4 (CSPG4) (human) (UniProt Q6UVK1); assay: flow cytometry (FACS), whole cell population of HS578T cells; control antibody
[16] = molecular target: chondroitin sulfate proteoglycan 4 (CSPG4) (human) (UniProt Q6UVK1); assay: flow cytometry (FACS), CD44+/CD24-/lo putative CSC subpopulation of SUM-149 cells; control antibody
[17] = molecular target: chondroitin sulfate proteoglycan 4 (CSPG4) (human) (UniProt Q6UVK1); assay: flow cytometry (FACS), whole cell population of T-47D cells; control antibody
[18] = molecular target: chondroitin sulfate proteoglycan 4 (CSPG4) (human) (UniProt Q6UVK1); assay: flow cytometry (FACS), whole cell population of MCF-7 cells; control antibody
[19] = molecular target: chondroitin sulfate proteoglycan 4 (CSPG4) (human) (UniProt Q6UVK1); assay: flow cytometry (FACS), whole cell population of SUM-149 cells; control antibody
[20] = molecular target: chondroitin sulfate proteoglycan 4 (CSPG4) (human) (UniProt Q6UVK1); assay: flow cytometry (FACS), CD44+/CD24-/lo putative CSC subpopulation of MCF-7 cells; control antibody
[21] = molecular target: chondroitin sulfate proteoglycan 4 (CSPG4) (human) (UniProt Q6UVK1); assay: flow cytometry (FACS), whole cell population of MDA-MB-435 cells; control antibody
[22] = molecular target: chondroitin sulfate proteoglycan 4 (CSPG4) (human) (UniProt Q6UVK1); assay: flow cytometry (FACS), CD44+/CD24-/lo putative CSC subpopulation of MDA-MB-435 cells; control antibody
[23] = molecular target: chondroitin sulfate proteoglycan 4 (CSPG4) (human) (UniProt Q6UVK1); assay: flow cytometry (FACS), CD44+/CD24-/lo putative CSC subpopulation of MDA-MB-231 cells; control antibody
[24] = molecular target: chondroitin sulfate proteoglycan 4 (CSPG4) (human) (UniProt Q6UVK1); assay: flow cytometry (FACS), whole cell population of MDA-MB-231 cells; control antibody
[25] = molecular target: chondroitin sulfate proteoglycan 4 (CSPG4) (human) (UniProt Q6UVK1); assay: flow cytometry (FACS), CD44+/CD24-/lo putative CSC subpopulation of HS578T cells; control antibody

UniProt Q6UVK1, sequence (Q6UVK1 30-2322): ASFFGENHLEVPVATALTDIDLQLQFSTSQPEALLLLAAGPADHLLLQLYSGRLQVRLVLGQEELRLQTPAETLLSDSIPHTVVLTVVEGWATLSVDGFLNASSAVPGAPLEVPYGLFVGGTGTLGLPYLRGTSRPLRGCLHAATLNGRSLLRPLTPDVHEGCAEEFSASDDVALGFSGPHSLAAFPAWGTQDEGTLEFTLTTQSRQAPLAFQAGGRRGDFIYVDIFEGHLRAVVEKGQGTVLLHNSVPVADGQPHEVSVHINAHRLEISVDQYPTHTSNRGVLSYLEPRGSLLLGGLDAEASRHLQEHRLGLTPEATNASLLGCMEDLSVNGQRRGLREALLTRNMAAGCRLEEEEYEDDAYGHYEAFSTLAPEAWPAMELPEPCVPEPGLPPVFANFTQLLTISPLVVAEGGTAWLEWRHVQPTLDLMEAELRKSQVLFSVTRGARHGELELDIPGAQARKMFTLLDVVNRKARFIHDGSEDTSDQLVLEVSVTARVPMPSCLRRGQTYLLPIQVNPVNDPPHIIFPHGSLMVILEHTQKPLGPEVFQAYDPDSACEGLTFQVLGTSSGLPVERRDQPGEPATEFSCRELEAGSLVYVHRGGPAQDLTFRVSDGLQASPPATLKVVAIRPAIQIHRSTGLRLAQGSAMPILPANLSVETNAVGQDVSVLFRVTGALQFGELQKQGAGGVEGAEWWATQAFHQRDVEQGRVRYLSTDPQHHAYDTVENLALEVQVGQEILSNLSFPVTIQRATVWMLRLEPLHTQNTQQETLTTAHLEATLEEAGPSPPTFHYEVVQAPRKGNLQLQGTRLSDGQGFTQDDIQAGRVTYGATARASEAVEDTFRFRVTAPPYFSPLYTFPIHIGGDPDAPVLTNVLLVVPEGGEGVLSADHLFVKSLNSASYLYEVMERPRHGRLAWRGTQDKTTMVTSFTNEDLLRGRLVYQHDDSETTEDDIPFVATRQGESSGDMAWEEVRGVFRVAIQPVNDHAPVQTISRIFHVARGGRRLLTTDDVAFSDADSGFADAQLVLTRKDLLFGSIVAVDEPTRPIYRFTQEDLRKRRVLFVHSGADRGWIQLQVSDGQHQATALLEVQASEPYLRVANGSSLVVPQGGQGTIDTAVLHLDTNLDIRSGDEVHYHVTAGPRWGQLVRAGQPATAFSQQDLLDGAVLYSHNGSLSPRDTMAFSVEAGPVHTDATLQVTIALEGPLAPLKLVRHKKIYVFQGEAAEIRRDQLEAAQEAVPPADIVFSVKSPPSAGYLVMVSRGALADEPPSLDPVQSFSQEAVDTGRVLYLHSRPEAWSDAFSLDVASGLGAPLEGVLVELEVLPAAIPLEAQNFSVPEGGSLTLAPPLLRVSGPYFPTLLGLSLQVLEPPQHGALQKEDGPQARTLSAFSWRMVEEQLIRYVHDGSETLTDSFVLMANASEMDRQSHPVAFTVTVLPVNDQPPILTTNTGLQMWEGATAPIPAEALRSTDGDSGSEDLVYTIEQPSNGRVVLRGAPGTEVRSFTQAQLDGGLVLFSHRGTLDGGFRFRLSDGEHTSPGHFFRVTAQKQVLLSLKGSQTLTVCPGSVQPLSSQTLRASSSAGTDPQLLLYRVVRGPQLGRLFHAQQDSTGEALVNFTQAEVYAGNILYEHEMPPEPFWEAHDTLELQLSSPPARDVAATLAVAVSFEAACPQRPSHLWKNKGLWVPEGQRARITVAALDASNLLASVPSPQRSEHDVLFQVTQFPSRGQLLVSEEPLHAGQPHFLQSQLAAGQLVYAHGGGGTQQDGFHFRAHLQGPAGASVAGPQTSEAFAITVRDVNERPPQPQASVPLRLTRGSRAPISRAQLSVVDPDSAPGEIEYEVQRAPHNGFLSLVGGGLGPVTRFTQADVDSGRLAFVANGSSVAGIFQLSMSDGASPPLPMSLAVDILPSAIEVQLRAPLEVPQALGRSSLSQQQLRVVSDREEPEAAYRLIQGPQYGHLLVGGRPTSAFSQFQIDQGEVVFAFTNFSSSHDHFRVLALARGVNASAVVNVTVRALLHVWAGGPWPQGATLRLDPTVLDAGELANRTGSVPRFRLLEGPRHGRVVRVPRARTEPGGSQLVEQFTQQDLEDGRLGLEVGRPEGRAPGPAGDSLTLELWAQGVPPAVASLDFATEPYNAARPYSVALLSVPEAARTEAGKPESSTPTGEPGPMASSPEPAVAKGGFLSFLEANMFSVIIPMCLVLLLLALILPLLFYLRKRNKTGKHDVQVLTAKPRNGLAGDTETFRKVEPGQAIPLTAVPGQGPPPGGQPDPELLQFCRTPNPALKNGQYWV

Q: With CSPG4-specific mAb 225.28 (antibody) as the substance, how does the % of stained cells [1] read?
A: Its % of stained cells is 95.7%.

Q: What about the MFI [1] of the same substance?
A: The MFI was 179.

Q: And the % of stained cells [2]?
A: Its % of stained cells is 13%.

Q: What about the MFI [2] of the same substance?
A: The MFI was 3.8.

Q: What about the % of stained cells [3] of the same substance?
A: The % of stained cells was 85.7%.

Q: What about the MFI [3] of the same substance?
A: Its MFI is 53.8.

Q: What about the % of stained cells [4] of the same substance?
A: The % of stained cells was 96.1%.

Q: And the MFI [4]?
A: The MFI was 714.

Q: What about the % of stained cells [5] of the same substance?
A: Its % of stained cells is 71.7%.

Q: And the MFI [5]?
A: The MFI was 196.

Q: What about the % of stained cells [6] of the same substance?
A: The % of stained cells was 1.5%.

Q: What about the MFI [6] of the same substance?
A: The MFI was 4.6.

Q: And the % of stained cells [7]?
A: Its % of stained cells is 93.4%.

Q: And the MFI [7]?
A: Its MFI is 193.

Q: And the % of stained cells [8]?
A: The % of stained cells was 83.8%.

Q: What about the MFI [8] of the same substance?
A: Its MFI is 53.8.

Q: And the % of stained cells [9]?
A: Its % of stained cells is 66.7%.

Q: What about the MFI [9] of the same substance?
A: Its MFI is 379.

Q: And the inhibition of adhesion of cells to fibronectin [10]?
A: The inhibition of adhesion of cells to fibronectin was 45%.

Q: What about the inhibition of cell growth in a 3D matrix setting (TNBC cells) [10] of the same substance?
A: The inhibition of cell growth in a 3D matrix setting (TNBC cells) was 70%.

Q: What about the inhibition of motility towards fibronectin in a Boyden chamber assay [10] of the same substance?
A: The inhibition of motility towards fibronectin in a Boyden chamber assay was 56%.

Q: What about the % of stained cells [11] of the same substance?
A: The % of stained cells was 99.7%.

Q: And the MFI [11]?
A: The MFI was 694.

Q: What about the % of stained cells [12] of the same substance?
A: The % of stained cells was 11.4%.

Q: And the MFI [12]?
A: Its MFI is 9.8.

Q: And the % of stained cells [13]?
A: Its % of stained cells is 8.5%.

Q: What about the MFI [13] of the same substance?
A: The MFI was 12.

Q: Which results are given for CSPG4-specific mAb 763.74 (antibody)?
A: % of stained cells [1]: 3%; MFI [1]: 3.1; % of stained cells [2]: 0.5%; MFI [2]: 3.4; % of stained cells [3]: 16.6%; MFI [3]: 6.9; % of stained cells [4]: 93.5%; MFI [4]: 79.2; % of stained cells [5]: 33.9%; MFI [5]: 17.6; % of stained cells [6]: 0%; MFI [6]: 2; % of stained cells [7]: 1.3%; MFI [7]: 2.8; % of stained cells [8]: 91.2%; MFI [8]: 154; % of stained cells [9]: 61.4%; MFI [9]: 39.2; % of stained cells [11]: 96.4%; MFI [11]: 50.5; % of stained cells [12]: 2.6%; MFI [12]: 2.4; % of stained cells [13]: 17.4%; MFI [13]: 13.8

Q: How did the % of stained cells [1] turn out when CSPG4-specific mAb TP41.2 (antibody) was run?
A: Its % of stained cells is 1.4%.

Q: And the MFI [1]?
A: The MFI was 2.7.

Q: And the % of stained cells [2]?
A: The % of stained cells was 0.3%.

Q: What about the MFI [2] of the same substance?
A: The MFI was 2.7.

Q: And the % of stained cells [3]?
A: Its % of stained cells is 12%.

Q: And the MFI [3]?
A: The MFI was 6.1.

Q: And the % of stained cells [4]?
A: The % of stained cells was 86.8%.

Q: What about the MFI [4] of the same substance?
A: Its MFI is 63.3.

Q: What about the % of stained cells [5] of the same substance?
A: The % of stained cells was 17.6%.

Q: What about the MFI [5] of the same substance?
A: The MFI was 14.5.

Q: What about the % of stained cells [6] of the same substance?
A: The % of stained cells was 0.1%.

Q: What about the MFI [6] of the same substance?
A: Its MFI is 2.1.

Q: And the % of stained cells [7]?
A: Its % of stained cells is 0.9%.

Q: And the MFI [7]?
A: The MFI was 2.8.

Q: And the % of stained cells [8]?
A: Its % of stained cells is 88.4%.

Q: And the MFI [8]?
A: The MFI was 142.

Q: And the % of stained cells [9]?
A: Its % of stained cells is 52.6%.

Q: And the MFI [9]?
A: Its MFI is 34.2.

Q: And the % of stained cells [11]?
A: Its % of stained cells is 91.9%.

Q: And the MFI [11]?
A: Its MFI is 40.4.

Q: And the % of stained cells [12]?
A: Its % of stained cells is 2.5%.

Q: What about the MFI [12] of the same substance?
A: Its MFI is 2.5.

Q: What about the % of stained cells [13] of the same substance?
A: Its % of stained cells is 13.8%.

Q: What about the MFI [13] of the same substance?
A: Its MFI is 11.9.

Q: What does the source list for CSPG4-specific mAb TP61.5 (antibody)?
A: % of stained cells [1]: 51.2%; MFI [1]: 10.5; % of stained cells [2]: 0%; MFI [2]: 2.3; % of stained cells [3]: 75.6%; MFI [3]: 33.6; % of stained cells [4]: 82.4%; MFI [4]: 61.1; % of stained cells [5]: 72.4%; MFI [5]: 34.4; % of stained cells [6]: 0.1%; MFI [6]: 2.4; % of stained cells [7]: 51.1%; MFI [7]: 19.6; % of stained cells [8]: 68.3%; MFI [8]: 86.3; % of stained cells [9]: 92.3%; MFI [9]: 109; % of stained cells [11]: 98%; MFI [11]: 93; % of stained cells [12]: 9.9%; MFI [12]: 3.2; % of stained cells [13]: 3.5%; MFI [13]: 7.8

Q: Isotype control (antibody) was tested. Which MFI [14] did it give?
A: The MFI was 4.3.

Q: What about the % of stained cells [15] of the same substance?
A: The % of stained cells was 0.4%.

Q: What about the MFI [15] of the same substance?
A: The MFI was 13.

Q: And the % of stained cells [16]?
A: Its % of stained cells is 0.5%.

Q: What about the % of stained cells [17] of the same substance?
A: Its % of stained cells is 6.2%.

Q: What about the MFI [17] of the same substance?
A: The MFI was 10.4.

Q: What about the % of stained cells [18] of the same substance?
A: The % of stained cells was 0.7%.

Q: What about the MFI [18] of the same substance?
A: Its MFI is 6.2.

Q: What about the % of stained cells [19] of the same substance?
A: Its % of stained cells is 2%.

Q: And the MFI [19]?
A: The MFI was 2.7.

Q: What about the % of stained cells [20] of the same substance?
A: The % of stained cells was 0.6%.

Q: What about the MFI [20] of the same substance?
A: The MFI was 1.8.

Q: And the % of stained cells [21]?
A: Its % of stained cells is 0.7%.

Q: And the MFI [21]?
A: Its MFI is 9.1.

Q: And the % of stained cells [22]?
A: Its % of stained cells is 0.5%.

Q: What about the MFI [22] of the same substance?
A: Its MFI is 3.

Q: And the % of stained cells [23]?
A: The % of stained cells was 0.4%.

Q: And the MFI [23]?
A: The MFI was 3.7.

Q: And the % of stained cells [24]?
A: Its % of stained cells is 0.3%.

Q: And the MFI [24]?
A: The MFI was 9.8.

Q: And the % of stained cells [25]?
A: Its % of stained cells is 0.5%.

Q: What about the MFI [25] of the same substance?
A: Its MFI is 10.

Reference: patent US20110171229A1
